Results as given in the nanobody polyreactivity screen of Harvey et al. (2022).

Assay: yeast display, Sf9 membrane polyspecificity reagent, FACS + sequencing; frameworks hold sequencing errors
Procedure, shortened: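 Polyreactivity labels are assigned by the sorting gate from which each nanobody was recovered. The gates were low and high (top ~1%), set on anti-HA fluorescence for expression and streptavidin fluorescence for reagent binding. Before sorting, galactose-induced (36–48 hours) yeast display cells were stained for 1 hour at 4 °C with 10% biotinylated, detergent-solubilized Sf9 membrane reagent.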

Sequence	polyreactivity (PSR sort gate)
QVQLVESGGGLVQAGGSLRLSCAASGRIFVVNAMGWYRQAPGKERELVAAITRRGGSTYADSVKGRFTISRDNAKNTVYLQMNSLKPEDTAVYYCNAESYSGIFSYKYDYWGQGTQVTVSS	high polyreactivity
QVQLVESGGGLVQAGGSLRLSCAASGRIFVYNAMGWYRQAPGKEREFVATITSSGGRTYYADSVKGRFTISRDNAKNTVYLQMNSLKPEDTAVYYCAARPQNNGRNPVYRYNYWGQGTQVTVSS	high polyreactivity
QVQLVESGGGLVQAGGSLRLSCAASGRIFVYNAMGWYRQAPGKERELVAAITSGGSTYYADSVKGRFTISRDNAKNTVYLQMNSLKPEDTAVYYCAATYFSYTYSRYDYWGQGTQVTVSS	high polyreactivity
QVQLVESGGGLVQAGGSLRLSCAASGRIFVYNAMGWYRQAPGKERELVAGINGSGGSTYYAASVKGRFRISRDHAKNSVYLQMNSLKPEDTAGYYCNAWISYGYFIFDYWGQGTQVTVSS	high polyreactivity
QVQLVESGGGLVQAGGSLRLSCAASGRIFVYNAMGWYRQAPGKERELVASISWSGDSTYADSVKGRFTISRDNAKNTVYLQMNSLKPEDTAVYYCAADNGSKEFDYWGQGTQVTVSS	low polyreactivity
QVQLVESGGGLVQAGGSLRLSCAASGRIFVYYAMGWYRPAPGKERELVATITETGGSTYYADSVKGRFTISRDNAKNTVYLQMNSLKPEDSAVYYCNADYWGTYGWDWYWYVYWGQGTQVTVSS	low polyreactivity
QVQLVESGGGLVQAGGSLRLSCAASGRIFVYYAMGWYRPAPWKERELVAVITSGGITYYADSVKGRFTISRDNAKNTVYLQMNSLKPEDTAVYYCAARGHQYDPGSSGKKYYYWGQGTQVTVSS	high polyreactivity
QVQLVESGGGLVQAGGSLRLSCAASGRIFVYYAMGWYRQAPGKERELVAAISSGGDRTYYADSVKGRFTISRDNAKNTVYLQMNCLKPEDTAVYYCAKVYSTVKRYHWVGSRYDYWGQGTQVTVSS	high polyreactivity
QVQLVESGGGLVQAGGSLRLSCAASGRIFVYYAMGWYRQAPGKERELVASISYSGASTYYADSVKGRFTISRDNAKNTVYLQMNSLKPEDTAVYYCATDVRGVDGEDDYWGQGTQVTVSS	low polyreactivity
QVQLVESGGGLVQAGGSLRLSCAASGRIFWDNAMGWYRQAPGKERELVAAISGSGGNTYYADSVKGRFTISRDNAKNTVYLQMNSLKPEDTAVYYCNAYGHYTKRYRYGGWFDYWGQGTQVTVSS	low polyreactivity
QVQLVESGGGLVQAGGSLRLSCAASGRIFWDNAMGWYRQAPGKERELVAAITFSGGSTYYADSVKGRFTISRDNAKNTVYLQMNSLKPEDTAVYYCAKGEWVYWRPWYEYWGQGTQVTVSS	low polyreactivity
QVQLVESGGGLVQAGGSLRLSCAASGRIFWDYAMGWYRQAPGKERELVAVITFSGDSTYYADSVKGRFTISRDNAKHTVYIQMNSLKPEDTAVYYCAAARAIRQFWYVATFEYWGQGTLVTVSS	low polyreactivity
QVQLVESGGGLVQAGGSLRLSCAASGRIFWEYAMGWYRQAPGKERELVAAITWRVGSTYYADSVKGRFTISRDNAKNTVYLQMNSLKPEDTAVYYCAAARYLSIYNYWGQGTQVTVSS	low polyreactivity
QVQLVESGGGLVQAGGSLRLSCAASGRIFWGNAMGWYRQAPGKERELVAAITSGDGTNYADSVKGRFTISRDNAKNTVYLQMNSLKPEDTAVYYCSYYYWGQGTQVTVSS	low polyreactivity
QVQLVESGGGLVQAGGSLRLSCAASGRIFWGYAMGWYRQAPGKERELVAGITTGGSTKYADSVKGRFTISRDNAKNTVYLQMNSLKPEDTAVYYCAATGKWYHFYHYGYWGQGTQVTVSS	low polyreactivity
QVQLVESGGGLVQAGGSLRLSCAASGRIFWGYAMGWYRQAPGKERELVAGITTGGSTKYADSVKGRFTISRDNAKNTVYLQMNSLKPVDTAVYYCAADDQYGYVYYAFWGYDYWGQGTQVTVSS	low polyreactivity
QVQLVESGGGLVQAGGSLRLSCAASGRIFWGYAMGWYRQAPGKEREVVAAISWSGGSTYYADSVKGRFTISRDNAKNTVYLQMNSLKPEDTAVYYCAALRFQSYNYWGQGTQVTVSS	high polyreactivity
QVQLVESGGGLVQAGGSLRLSCAASGRIFWINAMGWYRQAPGKERELVAAISSGGGTHYADSVKGRFTISRDNAKNTVYLQMNSLKPEDTAVSYCARRYQRKKPVFPHYQGAYDYWGQGTQVTVSS	low polyreactivity
QVQLVESGGGLVQAGGSLRLSCAASGRIFWNYAMGWYREAPGKERELVASINWSGGSTYSADSVKGRFTISRDNAKNTVYLQMNSLKPEDTAVYYCNQDGRVYLDHDYWGQGTQVTVSS	low polyreactivity
QVQLVESGGGLVQAGGSLRLSCAASGRIFWRNTMGWYRQAPGKERELVAAITRTGGSTYYADSVKGRFTISRDNAKNTVYLQMNSLKPEDTAVYYCAVYARWYGYGYGYWGQGTQVTVSS	high polyreactivity
QVQLVESGGGLVQAGGSLRLSCAASGRIFWSNAMGWYRQAPGKERELVAAITWRGGSTYADSVKGRFTISRDNAKNTVYLQMNSLKPEDTAVYYCAASPSGWRYDYWGQGTQVTVSS	high polyreactivity
QVQLVESGGGLVQAGGSLRLSCAASGRIFWSYAMGWYRQAPGKERELVAAIRSGGTTDYADAVKGRFTISRDNAKYTVYLQMNSLKPEDTADYYCNREYRGAINYIYYYWGQGTQVTVSS	low polyreactivity

Sequence	polyreactivity (PSR sort gate)
QVQLVESGGGLVQAGGSLRLSCAASGRIFWVYAMGWYRQAPGKERELVAAIDWSDGITYYADSVKGRFTISRDNAKNTVYLQMNSLKPEDTAVYYCAAESVIYQTYNYWGQGTQVTVSS	high polyreactivity
QVQLVESGGGLVQAGGSLRLSCAASGRIFWVYTMGWYRQAPGKERELVAAITSADSTNYADSVKGRFTISRDNAKNTVYLQMNSLKAEDTAVYYCAARLARDQVREWDERYYYWGQGTQVTVSS	low polyreactivity
QVQLVESGGGLVQAGGSLRLSCAASGRIFWVYVMGWYRQAPGKERELVADITSIGGSTYYADSVKGRFTISRDNAKNTVDLQMNSLKPEDTAVYYCAAARRPTYCPVYPYFGYEYWGQGTQVTVSS	low polyreactivity
QVQLVESGGGLVQAGGSLRLSCAASGRIFWWYAMGWYRQAPGKERELVAVIDDSGGITYYADSVKGRFTISRDNAKHTVYLQMNSLKPEDTAVYYCARNVNAQKVLGGFDSWGQGTQVTVSS	low polyreactivity
QVQLVESGGGLVQAGGSLRLSCAASGRIFWWYVMGWYRQAPGKERELVAAITRSGVSTYYADSVKGRFTLSRDNAKNTVYLQINSLKPEDTAVYYCNVGPWPRSYAHRGYWGQVTQVTVSS	high polyreactivity
QVQLVESGGGLVQAGGSLRLSCAASGRIFWYNAMGWYRQAPGKERELVAAISSGGSTSYADSVKGRFTISRDNAKNTVYLQMNSLKPEDTAVYYCAKDDERKQGQYPPYDSWGQGTQVTVSS	low polyreactivity
QVQLVESGGGLVQAGGSLRLSCAASGRIFWYVLGWYRQAPGNERELVATITSSGGSSYYADSVKGRFTISRDNAKNTVYLQMNSLKPEDTAVNYCAVDLQTLGADRIITVYVGEDYWGQGTQVTVSS	low polyreactivity
QVQLVESGGGLVQAGGSLRLSCAASGRIFWYYAMGWYRPAPGKERELVATISYGGGNTYYADSVKGRFTISRDNAKNTVYLQMNSLKPEDTAVYYCARVPYAYLPYKPFQQYSYDYWGQGTQVTVSS	high polyreactivity
QVQLVESGGGLVQAGGSLRLSCAASGRIFWYYAMGWYRQAPGKERELVAAITSGGSTNYADSVKGRFTISRDNEKNTVYLQMNSLKQEDTAVYYCNARWPYSGMNYWGQGTQVTVSS	high polyreactivity
QVQLVESGGGLVQAGGSLRLSCAASGRIFWYYAMGWYRQAPGKERELVATISYVGGNTYYADSVKGRFTISRDNAKNTVYLQMNSLKPDDTAVYYCARVPYAYLPYKPFQQYSYDYWGQGTQVTVSS	high polyreactivity
QVQLVESGGGLVQAGGSLRLSCAASGRIFWYYPMGGYRQAPGKEREYVATINTSGGSTYYADSVKGRFTISRDNAKNTVYLQMNRLKPEDTAVYYCNAAYRFYRTEYYSWGQGTQVTVSS	low polyreactivity
QVQLVESGGGLVQAGGSLRLSCAASGRIFWYYTMGWYRQAPGKERELVAAISRGGSTYYADSVKGRFTISRDNAKNTVYLQMNSLKPEDTAVYYCAAQESWKIYDYWGQGTQVTVSS	low polyreactivity
QVQLVESGGGLVQAGGSLRLSCAASGRIFYANTMGWYRQAPGKERELVAAITGDGSTYADSVKGRFTISRDNAKNTVYLQMNSLKPEDTAVFYCAAEVDYSAFDYWGQGTQVTVSS	low polyreactivity
QVQLVESGGGLVQAGGSLRLSCAASGRIFYDYAMGWYRQAPGKERELVAAISGSGGSTYYADSVKGRFTISRDNAKNTVYLQMNSLKPEDTAVYYCNRYTTRYYPGGDYWGQGTQVTVSS	high polyreactivity
QVQLVESGGGLVQAGGSLRLSCAASGRIFYDYTMVWYRQAPGKERDLVATITSGGNTNYADSVKGRFTISRDNAKNTVYLPMNSLKPVDTAVYYCAPSYSAKRVKTGRVWYGYWGQGTQVTVSS	low polyreactivity
QVQLVESGGGLVQAGGSLRLSCAASGRIFYEYAMGWYRQAPGKERELVAAITRGDSTYYADSVKGRCTISRDNAKNTVYLQMNSLKPEDTAVYYCNAGVFDYSGDSNYWGQGTQVTVSS	low polyreactivity
QVQLVESGGGLVQAGGSLRLSCAASGRIFYFNAMAWYRQAPGKERELVAAISGSGGDTYYADSVKGRFTISRDNAKNTVYLQMNRLKPEETAVYYCAAEVYTWGQGTQVSVSS	low polyreactivity
QVQLVESGGGLVQAGGSLRLSCAASGRIFYFNAMGWYRQAPGKEREFVASINSIGDSTYYADSVKGRFTISRDNAKNTVYIQMNSQKPEDTAVYYCKADHGVINYRLDYWGHGTQVTVSS	low polyreactivity
QVQLVESGGGLVQAGGSLRLSCAASGRIFYFNAMGWYRQAPGKERELVAAISGSGGDTYYADTVKGRFTISRDNAKNTVYLQMNCLKPEDTAVYYCAAEVYTWGQGTQVTVSS	low polyreactivity
QVQLVESGGGLVQAGGSLRLSCAASGRIFYFNAMGWYRQAPGKERELVAAISWRGGSTYYADSVKGRFTISRDYAKNTVYLQMNSLKPEDTAVYYCNAVLWGYWPGYDYWGQGTQVTVSS	high polyreactivity
QVQLVESGGGLVQAGGSLRLSCAASGRIFYFNGMGWDRQAPGKERELVAAITWNTGSTYYADSVKGRFTISRDNAKNTVYLQMNSLKPEDTAVYYCNAPWAGQHPTLWKGGYWGQGTQVTVSS	low polyreactivity
